{
  "source": "patent US20240352121A1",
  "about": "“LAIR-1 AGONISTIC ANTIBODIES AND METHODS OF USE THEREOF” (NEXTCURE, INC., priority 2023, published 2024)",
  "key": {"[1]": {"system": "MV4-11-Luc cells", "assay": "In-vitro phagocytosis (ADCP) assay, mouse bone marrow macrophages with MV4-11-Luc cells", "format": "cell-based, human", "details": "20 μg/ml, 16 hours", "procedure": "Mouse BMM was generated with 100 ng/ml M-CSF (Cat #416-ML-500) using seed BMM cells at 1e5/well in 24 well plate. Stain was done with Cell trace violet (Thermofisher). Target MV411 cells were labeled with PKH26 (Sigma #PKH26gl-1kt) according to manufacturer's instructions and cocultured with BMM at ratio of 5:1 in presence of 20 μg/ml h11B3 or control antibody for 16 hours. Phagocytosis was analyzed by flow cytometry."}, "[2]": {"system": "MV4-11 cells", "assay": "MV4-11-luciferase cell-derived xenograft (CDX) model", "format": "in vivo, NSG mice", "procedure": "2e6 luciferase-expressing MV4-11-Luc or THP-1-Luc cells were suspended in sterile PBS and implanted into NSG mice via tail-vein injection. […] AML cell proliferation was monitored by weekly i.p. injection of D-Luciferin, immediately followed by IVIS bioluminescent imaging and quantification of luminescent signal. […] Imaging Perkin Elmore IVIS Lumina XRMS Series III.\nNSG mice were injected with 2e6 THP-1 luciferase cells or 2e6 MV4-11-luciferase cells via tail vein injection. Leukemia progression was quantified by i.p. injection of 100 μL bioluminescent substrate and IVIS imaging 8 minutes post injection. Progression was assessed weekly staring on Day 7 post-challenge. 10 mg/kg mab treatment was performed by i.p injection starting on day 8 and continuing twice a week until the end of the study. For the subcutaneous engraftment model, NSG mice were subcutaneously injected on the right flank with 5e6 MV4-11-Luc-LAIR-1^OE cells. Mice were treated by weekly i.p. injection of 10 mg/kg mAb. Tumor growth was measured by calipers twice weekly until end point."}, "[3]": {"assay": "Pharmacokinetic study in balb/c mice", "format": "in vivo", "details": "10 mg/kg intraperitoneal, blood serum", "procedure": "Balb/c mice were intraperitoneally injected with 10 mg/kg h11B3. Mice were subsequently bled by cheek-vein puncture at the indicated time points. Blood serum was isolated by centrifugation at 2500 RCF in serum-collection tubes. Blood serum was tested for circulating h11B3 by Universal PK assay. Briefly, h11B3 in mouse serum was captured using a biotin-labeled anti-human IgG inside a nanoliter column of a Gyrolab CD. Alexa Fluor labeled anti-human IgG was used for detection. The quantitative dynamic range was (500-100,000) ng/ml (LLOQ-ULOQ). The standard curve and controls were prepared in pooled Balb/C serum (Biochemed). Standard curve, controls, and samples were diluted 1:10-fold (MRD) in buffer. Samples above the upper limit of quantitation (100,000 ng/mL) were brought within range by diluting them in Rexiip buffer. The laser-induced fluorescence detection technique detected the amount of analyte present in the sample. The standard curve signals were used to interpolate unknown sample concentrations. All samples were analyzed in duplicates and assigned an acceptance criteria (±20% CV and Bias). Gyrolab Evaluator software was used to perform 4PL with Y weighing non-linear regression to interpolate unknown sample concentrations."}, "[4]": {"system": "AML patient LSCs engrafted in mice", "assay": "AML patient-derived xenograft (PDX) model", "format": "in vivo, NSG-SGM3 mice", "details": "5 mg/kg i.p. weekly, 4 doses; at any time point", "procedure": "Newborn (3-5 day from birth) NSG-SGM3 pups were sub-lethally (200 cGy) irradiated. 12 hours post-irradiation, mice were intra-hepatically transplanted with 0.2e6 AML bone-marrow cells or normal CD34 HSCs from cryopreserved stocks. 6 weeks post-transplant, blood was collected to assess engraftment of progenitor cells via flow cytometry, staining for human CD45, human CD33, and human CD3. Once engraftment of human cells was confirmed, 5 mg/kg of anti-human LAIR-1 mAb or isotype control was intraperitoneally injected weekly for a total of 4 doses. At the indicated timepoints post-treatment, blood was collected to assess the proliferation of AML cells as a measure of LAIR-1 mAb anti-leukemic activity as compared to isotype control. For standard-of-care combination studies, PDX mice were treated with 20 mg/kg venetoclax 5 days on and 2 days off for 5 weeks, and X 1.5 mg/kf-tiw azacytidine upfront one week only. LAIR-1 mAb was treated i.p. once per week for 5 weeks. Blood was harvested as described above to measure leukemic growth and spleens were harvested at endpoint and weighed for assessment of splenomegaly. For secondary transplant studies, mice were engrafted as above. […] Leukemia progression in recipient mice was measured by flow cytometry by quantifying the percent of human CD33^+ human CD45^+ cells in peripheral blood at weeks 4, 6, and 10 weeks post-transplant."}, "[5]": {"system": "human LAIR-1", "sequence (as listed by the source)": "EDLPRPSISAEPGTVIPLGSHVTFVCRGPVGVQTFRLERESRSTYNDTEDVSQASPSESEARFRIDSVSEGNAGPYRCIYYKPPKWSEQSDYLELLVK", "assay": "UT-140 LAIR-1 reporter cell activation (agonism)", "format": "cell-based", "details": "upon engagement and crosslinking", "procedure": "For cell binding assays, 5e4 UT-140 cells or mouse LAIR-1-transfected 293T cells per well were plated in 200 μL PBS in a 96-well round bottom plate, centrifuged for 4 minutes at 500×g for a single wash, and blocked for 10 minutes on ice with flow cytometry buffer (PBS+2% FBS+0.1 mM EDTA) containing 1:50 dilution of TruStain™ Fc block (Biolegend, San Diego, CA). Cells were subsequently stained for 30 min on ice with titrated concentrations of soluble AF647-labeled LAIR-1 mAb or AF647-labeled isotype control. Cells were then washed 3 times as previously described and binding was measured by flow cytometry using an Attune NXT flow cytometer. For reporter cell assays, flat-bottom 96-well TC plates were coated with 10 μg/mL per well of the indicated antibody in PBS or 2 μg/mL of ligand in 0.01N HCl overnight at 4° C. Wells were washed once with 200 μL sterile PBS. 5e4-to-1e5 cells per well were plated in 100 μL RPMIc containing titrated concentrations of LAIR-1 mAb or isotype control, then incubated overnight at 37° C. The next day, cells were transferred to a 96-well round-bottom plate, centrifuged for 4 minutes at 500×g, and resuspended in 200 μL of flow cytometry buffer. Cells were then centrifuged and resuspended for a total of 3 washes. GFP expression was measured by flow cytometry using an Attune NXT Flow Cytometer."}},
  "data": [
    {"molecule": "LAIR-1 mAb: humanized agonist anti-LAIR-1 mAb, IgG1 backbone; h11B3 VL-2 (SEQ ID NO: 16), h11B3 VH-3 (SEQ ID NO: 27) (antibody, V domains shown, IgG1 constant regions; Synthetic: h11B3 VH-3; Synthetic: h11B3 VL-2) VH: EVQLVESGGGLVQPGGSLKLSCAASGFTFNTNAMYWVRQAPGKGLEWVGRIRSKSSNYATYYAASVKGRFTISRDDSKNTLYLQMNSLKTEDTAVYYCVRGGSGFFAYWGQGTLVTVSS VL: DIQMTQSPSSLSASLGDRVTITCKASEDIYIRLAWYQQKPGKAPRLLISTATSLETGVPSRFSGSGSGTDYTFTISSLQPEDIATYYCQQYWSTPYTFGGGTRLEIK", "values": [
      {"measurement": "ADCP activity", "setting": "[1]", "value": "induces ADCP activity"},
      {"measurement": "leukemic cell growth in vivo", "setting": "[2]; 10 mg/kg i.p. twice a week", "value": "inhibited leukemic cell growth"},
      {"measurement": "inhibition of LAIR-1 OE AML growth compared to LAIR-1 WT", "setting": "[2]; MV4-11 LAIR-1 OE vs WT cells", "value": "more strongly inhibiting"},
      {"measurement": "tumor burden", "setting": "[2]; biweekly dose of 10 mg/kg, flow cytometry of spleen and bone marrow", "value": "reduce tumor burden"},
      {"measurement": "AML cells in the blood, spleen, and bone marrow", "setting": "[2]; mouse, in vivo", "value": "nearly absent"},
      {"measurement": "percentage of dead MV4-11 cells in blood, spleen, and bone-marrow", "setting": "[2]; mouse, in vivo", "value": "increased"},
      {"measurement": "MV4-11 in vivo growth, monotherapy", "setting": "[2]; physiologically relevant doses, 10 mg/kg NC525, 100 mg/kg VEN, 0.5 mg/kg AZA", "value": "significantly better activity than AZA monotherapy"},
      {"measurement": "Tmax", "setting": "[3]", "value": 8, "unit": "h"},
      {"measurement": "human CD45 CD33 cells in circulation", "setting": "[4]", "value": "< 10", "unit": "%"},
      {"measurement": "human LAIR-1 signaling (agonist)", "setting": "[5]", "value": "capable of inducing human LAIR-1 signaling"}
    ]}
  ]
}
